Experimental data: patent US20210388087A1 (Chugai, published 2021)
Numbering of substitutions follows the chain as printed. Numbers in names are those of the source. Each block holds one binder with its values, some of them ahead of it.

Biological target: T1, CD3 epsilon homodimer protein (UniProt P07766 23-126)
T1 construct: immobilized on Sensor chip CM4 by amine coupling; also called CD3 (CD3 epsilon)
Experiment: SPR (Biacore T200), CD3 epsilon homodimer on CM4 chip, one-arm antibody as analyte, 25 C;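 note: homodimer attached to the sensor surface via amine coupling, HBS-EP+ used as running buffer during binding runs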

T1 sequence (P07766 23-126): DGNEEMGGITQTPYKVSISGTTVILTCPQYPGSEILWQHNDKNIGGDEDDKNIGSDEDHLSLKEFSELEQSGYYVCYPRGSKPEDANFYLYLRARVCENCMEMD

B1: CE115HA000 N31Y one-arm antibody (antibody, human IgG1, kappa, L234A L235A, N297A, name in Kabat numbering)
heavy: QVQLVESGGGVVQPGRSLRLSCAASGFTFSYAWMHWVRQAPGKGLEWVAQIKAKSNNYATYYAESVKGRFTISRDDSKNSLYLQMNSLKTEDTAVYYCRYVHYGAYYGVDAWGQGTTVTVSSASTKGPSVFPLAPSSKSTSGGTAALGCLVKDYFPEPVTVSWNSGALTSGVHTFPAVLQSSGLYSLSSVVTVPSSSLGTQTYICNVNHKPSNTKVDKKVEPKSCDKTHTCPPCPAPEAAGGPSVFLFPPKPKDTLMISRTPEVTCVVVDVSHEDPEVKFNWYVDGVEVHNAKTKPREEQYASTYRVVSVLTVLHQDWLNGKEYKCKVSNKALPAPIEKTISKAKGQPREPQVYTLPPSRCELTKNQVSLSCAVKGFYPSDIAVEWESNGQPENNYKTTPPVLDSDGSFFLVSKLTVDKSRWQQGNVFSCSVMHEALHNHYTQKSLSLSPDYKDDDDK
chain: EPKSSDKTHTCPPCPAPELLGGPSVFLFPPKPKDTLMISRTPEVTCVVVDVSHEDPEVKFNWYVDGVEVHNAKTKPREEQYNSTYRVVSVLTVLHQDWLNGKEYKCKVSNKALPAPIEKTISKAKGQPREPQVCTLPPSRDELTKNQVSLWCLVKGFYPSDIAVEWESNGQPENNYKTTPPVLDSDGSFFLYSKLTVDKSRWQQGNVFSCSVMHEALHNRYTQKSLSLSP
light: DIVMTQSPLSLPVTPGEPASISCRSSQSLVHSNRNTYLHWYQQKPGQAPRLLIYKVSNRFSGVPDRFSGSGSGTDFTLKISRVEAEDVGVYYCGQGTQVPYTFGQGTKLEIKRTVAAPSVFIFPPSDEQLKSGTASVVCLLNNFYPREAKVQWKVDNALQSGNSQESVTEQDSKDSTYSLSSTLTLSKADYEKHKVYACEVTHQGLSSPVTKSFNRGEC
- ratio of amounts bound (altered form / CE115HA000): 0.64

B2: CE115HA000 N54F one-arm antibody (antibody, human IgG1, kappa, L234A L235A, N297A, name in Kabat numbering)
heavy: B1 heavy with Y31N, N57F
chain: B1 chain
light: B1 light
- ratio of amounts bound (altered form / CE115HA000): 1.12

B3: CE115HA000 N54K one-arm antibody (antibody, human IgG1, kappa, L234A L235A, N297A, name in Kabat numbering)
heavy: B1 heavy with Y31N, N57K
chain: B1 chain
light: B1 light
- ratio of amounts bound (altered form / CE115HA000): 1.2

B4: CE115HA000 N53W one-arm antibody (antibody, human IgG1, kappa, L234A L235A, N297A, name in Kabat numbering)
heavy: B1 heavy with Y31N, N56W
chain: B1 chain
light: B1 light
- ratio of amounts bound (altered form / CE115HA000): 0.88

B5: CE115HA000 N53I one-arm antibody (antibody, human IgG1, kappa, L234A L235A, N297A, name in Kabat numbering)
heavy: B1 heavy with Y31N, N56I
chain: B1 chain
light: B1 light
- ratio of amounts bound (altered form / CE115HA000): 0.68

B8: CE115HA000 N53Q one-arm antibody (antibody, human IgG1, kappa, L234A L235A, N297A, name in Kabat numbering)
heavy: B1 heavy with Y31N, N56Q
chain: B1 chain
light: B1 light
- ratio of amounts bound (altered form / CE115HA000): 1.1

B9: CE115HA000 N53A one-arm antibody (antibody, human IgG1, kappa, L234A L235A, N297A, name in Kabat numbering)
heavy: B1 heavy with Y31N, N56A
chain: B1 chain
light: B1 light
- ratio of amounts bound (altered form / CE115HA000): 0.7

B10: CE115HA000 N54D one-arm antibody (antibody, human IgG1, kappa, L234A L235A, N297A, name in Kabat numbering)
heavy: B1 heavy with Y31N, N57D
chain: B1 chain
light: B1 light
- ratio of amounts bound (altered form / CE115HA000): 0.62

B11: CE115HA000 N53H one-arm antibody (antibody, human IgG1, kappa, L234A L235A, N297A, name in Kabat numbering)
heavy: B1 heavy with Y31N, N56H
chain: B1 chain
light: B1 light
- ratio of amounts bound (altered form / CE115HA000): 0.76

B19: CE115HA000 N54G one-arm antibody (antibody, human IgG1, kappa, L234A L235A, N297A, name in Kabat numbering)
heavy: B1 heavy with Y31N, N57G
chain: B1 chain
light: B1 light
- ratio of amounts bound (altered form / CE115HA000): 0.98

B21: CE115HA000 N53G one-arm antibody (antibody, human IgG1, kappa, L234A L235A, N297A, name in Kabat numbering)
heavy: B1 heavy with Y31N, N56G
chain: B1 chain
light: B1 light
- ratio of amounts bound (altered form / CE115HA000): 0.5

B23: CE115HA000 N53K one-arm antibody (antibody, human IgG1, kappa, L234A L235A, N297A, name in Kabat numbering)
heavy: B1 heavy with Y31N, N56K
chain: B1 chain
light: B1 light
- ratio of amounts bound (altered form / CE115HA000): 0.78

B26: CE115HA000 N54A one-arm antibody (antibody, human IgG1, kappa, L234A L235A, N297A, name in Kabat numbering)
heavy: B1 heavy with Y31N, N57A
chain: B1 chain
light: B1 light
- ratio of amounts bound (altered form / CE115HA000): 0.85

B28: CE115HA000 N53D one-arm antibody (antibody, human IgG1, kappa, L234A L235A, N297A, name in Kabat numbering)
heavy: B1 heavy with Y31N, N56D
chain: B1 chain
light: B1 light
- ratio of amounts bound (altered form / CE115HA000): 0.39

B29: CE115HA000 N53Y one-arm antibody (antibody, human IgG1, kappa, L234A L235A, N297A, name in Kabat numbering)
heavy: B1 heavy with Y31N, N56Y
chain: B1 chain
light: B1 light
- ratio of amounts bound (altered form / CE115HA000): 0.63

B33: CE115HA000 N53S one-arm antibody (antibody, human IgG1, kappa, L234A L235A, N297A, name in Kabat numbering)
heavy: B1 heavy with Y31N, N56S
chain: B1 chain
light: B1 light
- ratio of amounts bound (altered form / CE115HA000): 0.83

Results, then the binder that gave them:

- ratio of amounts bound (altered form / CE115HA000): 0.27
B6: CE115HA000 Q50D one-arm antibody (antibody, human IgG1, kappa, L234A L235A, N297A, name in Kabat numbering)
heavy: B1 heavy with Y31N, Q50D
chain: B1 chain
light: B1 light

- ratio of amounts bound (altered form / CE115HA000): 0.4
B7: CE115HA000 Q50I one-arm antibody (antibody, human IgG1, kappa, L234A L235A, N297A, name in Kabat numbering)
heavy: B1 heavy with Y31N, Q50I
chain: B1 chain
light: B1 light

- ratio of amounts bound (altered form / CE115HA000): 0.84
B12: CE115HA000 N54S one-arm antibody (antibody, human IgG1, kappa, L234A L235A, N297A, name in Kabat numbering)
heavy: B1 heavy with Y31N, N57S
chain: B1 chain
light: B1 light

- ratio of amounts bound (altered form / CE115HA000): 0.88
B13: CE115HA000 R16E one-arm antibody (antibody, human IgG1, kappa, L234A L235A, N297A, name in Kabat numbering)
heavy: B1 heavy with R16E, Y31N
chain: B1 chain
light: B1 light

- ratio of amounts bound (altered form / CE115HA000): 0.33
B14: CE115HA000 Q50K one-arm antibody (antibody, human IgG1, kappa, L234A L235A, N297A, name in Kabat numbering)
heavy: B1 heavy with Y31N, Q50K
chain: B1 chain
light: B1 light

- ratio of amounts bound (altered form / CE115HA000): 0.26
B15: CE115HA000 Q50E one-arm antibody (antibody, human IgG1, kappa, L234A L235A, N297A, name in Kabat numbering)
heavy: B1 heavy with Y31N, Q50E
chain: B1 chain
light: B1 light

- ratio of amounts bound (altered form / CE115HA000): 0.84
B16: CE115HA000 N54Q one-arm antibody (antibody, human IgG1, kappa, L234A L235A, N297A, name in Kabat numbering)
heavy: B1 heavy with Y31N, N57Q
chain: B1 chain
light: B1 light

- ratio of amounts bound (altered form / CE115HA000): 0.23
B17: CE115HA000 Q50L one-arm antibody (antibody, human IgG1, kappa, L234A L235A, N297A, name in Kabat numbering)
heavy: B1 heavy with Y31N, Q50L
chain: B1 chain
light: B1 light

- ratio of amounts bound (altered form / CE115HA000): 0.25
B18: CE115HA000 Q50Y one-arm antibody (antibody, human IgG1, kappa, L234A L235A, N297A, name in Kabat numbering)
heavy: B1 heavy with Y31N, Q50Y
chain: B1 chain
light: B1 light

- ratio of amounts bound (altered form / CE115HA000): 0.24
B20: CE115HA000 Q50A one-arm antibody (antibody, human IgG1, kappa, L234A L235A, N297A, name in Kabat numbering)
heavy: B1 heavy with Y31N, Q50A
chain: B1 chain
light: B1 light

- ratio of amounts bound (altered form / CE115HA000): 0.24
B22: CE115HA000 Q50S one-arm antibody (antibody, human IgG1, kappa, L234A L235A, N297A, name in Kabat numbering)
heavy: B1 heavy with Y31N, Q50S
chain: B1 chain
light: B1 light

- ratio of amounts bound (altered form / CE115HA000): 0.94
B24: CE115HA000 N54L one-arm antibody (antibody, human IgG1, kappa, L234A L235A, N297A, name in Kabat numbering)
heavy: B1 heavy with Y31N, N57L
chain: B1 chain
light: B1 light

- ratio of amounts bound (altered form / CE115HA000): 0.9
B25: CE115HA000 R16Q one-arm antibody (antibody, human IgG1, kappa, L234A L235A, N297A, name in Kabat numbering)
heavy: B1 heavy with R16Q, Y31N
chain: B1 chain
light: B1 light

- ratio of amounts bound (altered form / CE115HA000): 1.09
B27: CE115HA000 N54Y one-arm antibody (antibody, human IgG1, kappa, L234A L235A, N297A, name in Kabat numbering)
heavy: B1 heavy with Y31N, N57Y
chain: B1 chain
light: B1 light

- ratio of amounts bound (altered form / CE115HA000): 0.92
B30: CE115HA000 N76S one-arm antibody (antibody, human IgG1, kappa, L234A L235A, N297A, name in Kabat numbering)
heavy: B1 heavy with Y31N, N79S
chain: B1 chain
light: B1 light

- ratio of amounts bound (altered form / CE115HA000): 0.73
B31: CE115HA000 N82aD one-arm antibody (antibody, human IgG1, kappa, L234A L235A, N297A, name in Kabat numbering)
heavy: B1 heavy with Y31N, N86D
chain: B1 chain
light: B1 light

- ratio of amounts bound (altered form / CE115HA000): 0.94
B32: CE115HA000 Q105E one-arm antibody (antibody, human IgG1, kappa, L234A L235A, N297A, name in Kabat numbering)
heavy: B1 heavy with Y31N, Q114E
chain: B1 chain
light: B1 light
